These results are taken from patent US20050272637A1 (OREGON HEALTH AND SCIENCE UNIVERSITY, published 2005).

As usually defined, the Kd is a measure of binding affinity in units of concentration.

Assay [1] deals with HER-4 (erbB-4), human receptor (human, UniProt Q15303 26-1308). Kind of assay: ELISA of Int8 bound to transfected cells (FIG. 3B). The protocol: (§1) ELISA. […] Cells were washed with Phosphate Buffered Saline (PBS) and extracted in 50 mM Tris-HCl, pH 7.0, 1.0% NP-40.
For orientation: ELISA stands for enzyme-linked immunosorbent assay.

Assay [2] concerns the target T1, IGF-1R, insulin-like growth factor 1 receptor (human, UniProt P08069 31-1367).
T1 construct: On IGF-IR transfected 3T3 cells (hIGF-1R-3T3) in cell ELISA, or from their extracts in pull-downs (detected through the beta subunit); The entry is the precursor; the processing into alpha and beta subunits is not described; also called IGF-IR; IGF-1 receptor
In words: saturation binding to IGF-IR 3T3 cells, herstatin ELISA (determination of EXAMPLE 2). The procedure:
as §1
(§2) Statistical comparisons between different binding curves were performed by extra sums-of-squares F-test nonlinear regression coefficients. All tests were performed (α=0.05) using GraphPad Prism 4™ software (GraphPad™ Software, 1994-2003).

Assay [3] concerns the target T2, HER-2 (erbB-2), human receptor (human, UniProt P04626 23-1255).
T2 construct: On HER-2-transfected Cos-7 cells or 3T3/HER-2 cells (cell ELISA), or from transfected Cos-7 cell extracts (pull-down)
Kind of assay: saturation binding to HER-2/3T3 cells, herstatin ELISA, nonlinear regression (FIG. 5B). The protocol:
as §1, §2

The target of assay [4] is T1, IGF-1R, insulin-like growth factor 1 …. Kind of assay: saturation binding to IGF-IR/3T3 cells, herstatin ELISA, nonlinear regression (FIG. 5B). The protocol:
as §1, §2

The target is the same in assay [5]. Kind of assay: saturation binding to IGF-IR transfected 3T3 cells, herstatin ELISA, nonlinear regression. The protocol: as §1, §2
The target in assay [6] is T3, EGFR (HER-1, erbB-1), human epidermal growth factor receptor (human, UniProt P00533 25-1210).
T3 construct: also called EGF receptor
In words: saturation binding to EGFR-transfected Cos-7 cells, herstatin ELISA, nonlinear regression (FIG. 5A). The procedure:
as §1, §2

Assay [7] deals with T2, HER-2 (erbB-2), human receptor. In words: saturation binding to HER-2-transfected Cos-7 cells, herstatin ELISA, nonlinear regression (FIG. 5A). The procedure:
as §1, §2

The target is the same in assay [8]. In words: herstatin ELISA of peptide bound to HER-2 overexpressing cells. The procedure: as §1
The target is the same in assay [9]. Kind of assay: pull-down of HER-2 from transfected cell extracts, Western blot. The procedure: Methods. Cell lines, expression vectors, protein purification, pull down assays, antibodies and ELISA assays were as described under EXAMPLE 1, herein above. […] Following washing steps, the protein bound to the agarose was analyzed as a Western blot with receptor-specific antibodies.
Background: A western blot detects proteins with antibodies after separation by electrophoresis.

T1 sequence (P08069 31-1367 limits assumed): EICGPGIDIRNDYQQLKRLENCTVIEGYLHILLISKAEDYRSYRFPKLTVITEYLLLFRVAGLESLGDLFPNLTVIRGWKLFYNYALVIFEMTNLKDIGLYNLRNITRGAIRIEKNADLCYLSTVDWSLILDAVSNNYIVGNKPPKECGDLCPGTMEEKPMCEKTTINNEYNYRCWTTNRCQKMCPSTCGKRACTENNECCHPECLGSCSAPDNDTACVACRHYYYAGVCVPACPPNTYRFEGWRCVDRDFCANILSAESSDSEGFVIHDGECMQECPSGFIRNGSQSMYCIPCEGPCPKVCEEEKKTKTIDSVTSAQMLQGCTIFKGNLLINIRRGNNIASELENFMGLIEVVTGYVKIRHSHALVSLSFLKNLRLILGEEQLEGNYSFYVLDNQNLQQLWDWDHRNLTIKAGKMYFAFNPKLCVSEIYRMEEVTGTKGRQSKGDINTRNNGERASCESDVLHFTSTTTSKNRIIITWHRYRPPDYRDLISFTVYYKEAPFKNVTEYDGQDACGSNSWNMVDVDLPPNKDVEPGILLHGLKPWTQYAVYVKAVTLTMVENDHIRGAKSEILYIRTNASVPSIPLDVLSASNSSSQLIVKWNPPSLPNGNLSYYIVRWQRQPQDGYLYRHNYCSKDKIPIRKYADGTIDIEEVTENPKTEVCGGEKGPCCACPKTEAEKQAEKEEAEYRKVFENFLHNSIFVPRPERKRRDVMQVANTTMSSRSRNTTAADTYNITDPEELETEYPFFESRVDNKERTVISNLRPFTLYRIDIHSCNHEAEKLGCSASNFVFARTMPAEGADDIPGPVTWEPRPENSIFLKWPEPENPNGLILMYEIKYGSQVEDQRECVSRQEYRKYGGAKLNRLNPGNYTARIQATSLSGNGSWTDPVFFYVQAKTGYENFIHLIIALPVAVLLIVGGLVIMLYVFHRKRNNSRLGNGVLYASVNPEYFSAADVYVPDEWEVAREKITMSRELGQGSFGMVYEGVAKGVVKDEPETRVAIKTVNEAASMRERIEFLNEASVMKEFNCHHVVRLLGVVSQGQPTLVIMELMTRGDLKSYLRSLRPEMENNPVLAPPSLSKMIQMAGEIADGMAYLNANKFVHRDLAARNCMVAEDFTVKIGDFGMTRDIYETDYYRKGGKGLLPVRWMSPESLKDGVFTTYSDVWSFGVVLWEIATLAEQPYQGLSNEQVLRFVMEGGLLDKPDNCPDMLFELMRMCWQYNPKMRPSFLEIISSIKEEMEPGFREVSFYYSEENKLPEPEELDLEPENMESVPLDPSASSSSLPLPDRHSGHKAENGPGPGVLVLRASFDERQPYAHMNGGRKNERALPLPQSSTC
HER-4 (erbB-4), human receptor, sequence (Q15303 26-1308 limits assumed): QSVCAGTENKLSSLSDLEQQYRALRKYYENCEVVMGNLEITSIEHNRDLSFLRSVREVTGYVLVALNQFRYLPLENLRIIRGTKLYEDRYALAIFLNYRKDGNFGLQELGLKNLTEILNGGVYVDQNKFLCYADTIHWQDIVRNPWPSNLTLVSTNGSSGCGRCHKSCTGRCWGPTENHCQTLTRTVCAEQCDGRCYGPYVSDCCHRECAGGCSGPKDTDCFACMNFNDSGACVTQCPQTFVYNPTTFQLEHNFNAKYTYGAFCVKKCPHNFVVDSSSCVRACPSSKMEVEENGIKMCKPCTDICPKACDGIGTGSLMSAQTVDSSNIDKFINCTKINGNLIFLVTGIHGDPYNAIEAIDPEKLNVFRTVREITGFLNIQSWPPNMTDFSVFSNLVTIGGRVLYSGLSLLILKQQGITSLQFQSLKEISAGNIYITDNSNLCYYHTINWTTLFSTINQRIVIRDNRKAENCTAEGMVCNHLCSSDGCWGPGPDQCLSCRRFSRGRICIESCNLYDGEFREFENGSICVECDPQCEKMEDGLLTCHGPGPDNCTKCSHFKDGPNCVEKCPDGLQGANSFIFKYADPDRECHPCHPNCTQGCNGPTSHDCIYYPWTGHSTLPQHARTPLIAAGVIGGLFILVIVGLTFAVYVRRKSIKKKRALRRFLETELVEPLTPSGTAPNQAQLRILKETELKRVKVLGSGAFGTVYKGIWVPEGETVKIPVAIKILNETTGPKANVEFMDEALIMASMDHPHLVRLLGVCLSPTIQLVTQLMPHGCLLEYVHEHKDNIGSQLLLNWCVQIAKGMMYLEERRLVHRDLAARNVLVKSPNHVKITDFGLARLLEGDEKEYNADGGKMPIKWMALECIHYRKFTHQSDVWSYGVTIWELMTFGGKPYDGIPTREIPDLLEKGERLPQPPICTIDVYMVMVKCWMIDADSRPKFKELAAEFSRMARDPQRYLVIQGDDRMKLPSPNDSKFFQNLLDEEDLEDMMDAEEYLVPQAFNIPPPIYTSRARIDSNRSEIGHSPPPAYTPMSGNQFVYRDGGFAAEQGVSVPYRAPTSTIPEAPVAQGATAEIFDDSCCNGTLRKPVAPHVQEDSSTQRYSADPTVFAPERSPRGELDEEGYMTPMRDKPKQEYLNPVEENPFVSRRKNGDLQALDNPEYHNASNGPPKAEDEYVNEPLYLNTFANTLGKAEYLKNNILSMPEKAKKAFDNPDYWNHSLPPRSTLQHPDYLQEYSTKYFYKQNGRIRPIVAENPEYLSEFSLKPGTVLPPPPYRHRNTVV

B1: RBD Int8 polypeptide (intron 8-encoded receptor binding domain of herstatin, expressed as a bacterial peptide) (peptide)
chain: GTHSLPPRPAAVPVPLRMQPGPAHPVLSFLRPSWDLVSAFYSLPLAPLSPTSVPISPVSVGRGPDPDAHVAVDLSRYEG
notes: Purified from BL-21 bacteria; also called Int8 RBD polypeptide; Int8 peptide; not shown: pET 30 vector-encoded tags (His tag used for nickel purification, S-protein tag used for immobilisation)
With B1, the binding result in assay [1] is on record as “binds”. The Kd in assay [2] is 40 nM; in [3], 66 nM; in assay [4] it was 70 nM; in assay [5] it was 40 to 150 nM; in assay [6] it was 78 nM; in assay [7], 50 nM.

B2: mutant Int8 polypeptide with Arg to Ile mutation at residue 31 (peptide, not shown: small tags and cut ends)
chain: GTHSLPPRPAAVPVPLRMQPGPAHPVLSFLIPSWDLVSAFYSLPLAPLSPTSVPISPVSVGRGPDPDAHVAVDLSRYEG
notes: also called mutant RBD Int8 polypeptide; mutant Int8 RBD polypeptide
For the molecule B2, the “fold weaker binding than the wildtype peptide” value in assay [8] is approximately 2 fold. In assay [9], the “fold weaker binding than the wild type sequence (SEQ ID NO:24)” value was approximately 2 fold.
